One experiment concerns LNCaP cells. Put plainly: JNG assay, co-culture with LNCaP cells. The experiment is classed as cell-based. Conditions: for NFAT-GFP ASSAY: LNCaP: co-culture with LNCaP. A digest of the protocol:
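Read-out: % GFP-positive cells by flow cytometry after ~4 to 18 h coculture of SAR-transduced JNG cells with targets (E:T about 1:2). Scores reflect GFP induction above parental JNG controls: +/- ≈5%, + ≈10%, up to 5+ ≈50%.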

Another experiment concerns RAJI cells. Put plainly: JNG assay, co-culture with RAJI cells. In kind it is cell-based. As to conditions: for NFAT-GFP ASSAY: Raji: JNG cells expressing construct, co-culture with Raji. In short, it runs like this:
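Read-out is NFAT-driven GFP measured by flow cytometry after ~4–18 h co-culture of SAR-expressing JNG cells with target cells (E:T about 1:2). SARs were introduced by lentiviral spinfection and selected with puromycin or blasticidin when possible; scores (+/- to 5+ ≈ 5–50% GFP+) are relative to parental JNG cells.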

B1: 22043 (protein)
chain: MALPVTALLLPLALLLHAARPQLQLQESGPGLVKPSETLSLTCTVSGDSISSGDYYWGWIRQPPGKGLEWIGHIYYSGVTYYNPSLKSRVTISVDTSRNQFSLKLSSVTAADTAVYYCTREDSSNWRSRGQGTLVTVSSLEDKTHTCPPCPAPIKTDVITMDPKDNCSKDANDTLLLQLTNTSAYYMYLLLLLKSVVYFAIITCCLLRRTAFCCNGEKSRAKRSGSGATNFSLLKQAGDVEENPGPTSMDWIWRILFLVGAATGAHSFEVQLVESGGGVVQPGRSLRLSCAASGFSFSGYGMHWVRQAPGKGLEWVAYISYDGSNKYYADSVKGRFTISRDNSKNTLYLQMNSLRAEDTAVYYCAKDPAWGLRLGESSSYDFDIWGQGTMVTVSSTRDKTHTCPPCPAIPEDTFFPSPESSCDVKLVEKSFETDTNLNFQNLSVIGFRILLLKVAGFNLLMTLRLWSSRAKRSGSGVKQTLNFDLLKLAGDVESNPGPSRGHMTEYKPTVRLATRDDVPRAVRTLAAAFADYPATRHTVDPDRHIERVTELQELFLTRVGLDIGKVWVADDGAAVAVWTTPESVEAGAVFAEIGPRMAELSGSRLAAQQQMEGLLAPHRPKEPAWFLATVGVSPDHQGKGLGSAVVLPGVEAAERAGVPAFLETSAPRNLPFYERLGFTVTADVEVPEGPRTWCMTRKPGA
With B1, in the experiment on LNCaP cells, the “NFAT-GFP ASSAY: LNCaP” value is “+ (refer to approximately 5%, 10%, 20%, 30%, 40% and 50% GFP positive cells)”. For the same molecule, the “NFAT-GFP ASSAY: Raji” value in the experiment on RAJI cells was “+/- (refer to approximately 5%, 10%, 20%, 30%, 40% and 50% GFP positive cells)”.

B2: 22286 (protein)
chain: MALPVTALLLPLALLLHAARPACLFNQEVQIPLTESYCGPCPKNWICYKNNCYQFFDESKNWYESQASCMSQNASLLKVYSKEDQDLLKLVKSAHWMGLVHIPTNGSWQWEDGSILSPNLLTIIEMQKGDCALYASSFKGYIENCSTPNTYICMQRTVLEGQPKANPTVTLFPPSSEELQANKATLVCLISDFYPGAVTVAWKADGSPVKAGVETTKPSKQSNNKYAASSYLSLTPEQWKSHRSYSCQVTHEGSTVEKTVAPTECSPIKTDVITMDPKDNCSKDANDTLLLQLTNTSAYYMYLLLLLKSVVYFAIITCCLLRRTAFCCNGEKSRAKRSGSGATNFSLLKQAGDVEENPGPTSATMDWIWRILFLVGAATGAHSGPQVQLQESGGGLAQAGGSLRLSCAASGRTFSMGWFRQAPGKEREFVAAITYSGGSPYYASSVRGRFTISRDNAKNTVYLQMNSLKPEDTAVYYCAANPTYGSDWNAENWGQGTQVTVSSGSGGGGSGGGGSGGGGSFEQVQLQQPGAELVKPGASVKMSCKASGYAFSSYWINWMKQKPGQGLEWIGQIYPGDGDTNYNGKFKGRATLTADTSSSTAYMQLSSLTSEDSAVYFCARSITTVVGCAMDYWGQGTSVTVSSTRASTKGPSVFPLAPSSKSTSGGTAALGCLVKDYFPEPVTVSWNSGALTSGVHTFPAVLQSSGLYSLSSVVTVPSSSLGTQTYICNVNHKPSNTKVDKRVEPKSCEVKTDSTDHVKPKETENTKQPSKSCHKPKAIVHTEKVNMMSLTVLGLRMLFAKTVAVNFLLTAKLFFLRAKRSGSGVKQTLNFDLLKLAGDVESNPGPSRGHMTEYKPTVRLATRDDVPRAVRTLAAAFADYPATRHTVDPDRHIERVTELQELFLTRVGLDIGKVWVADDGAAVAVWTTPESVEAGAVFAEIGPRMAELSGSRLAAQQQMEGLLAPHRPKEPAWFLATVGVSPDHQGKGLGSAVVLPGVEAAERAGVPAFLETSAPRNLPFYERLGFTVTADVEVPEGPRTWCMTRKPGA
Take B2: in the experiment with LNCaP cells (LNCaP in presence of SAR adaptor PSMA-USC76-chVH-G4S-ULBP2-S3), the “NFAT-GFP ASSAY: LNCaP with PSMA-USC76-chVH-G4S-ULBP2-S3” value was “+ (refer to approximately 5%, 10%, 20%, 30%, 40% and 50% GFP positive cells)”. Besides, the “NFAT-GFP ASSAY: Raji” value in the experiment on RAJI cells is “+ (refer to approximately 5%, 10%, 20%, 30%, 40% and 50% GFP positive cells)”.

B3: 22057 (protein)
chain: MALPVTALLLPLALLLHAARPQLQLQESGPGLVKPSETLSLTCTVSGDSISSGDYYWGWIRQPPGKGLEWIGHIYYSGVTYYNPSLKSRVTISVDTSRNQFSLKLSSVTAADTAVYYCTREDSSNWRSRGQGTLVTVSSLEGSEVKTDSTDHVKPKETENTKQPSKSCHKPKAIVHTEKVNMMSLTVLGLRMLFAKTVAVNFLLTAKLFFLRAKRSGSGVKQTLNFDLLKLAGDVESNPGPTSMDWIWRILFLVGAATGAHSFEVQLVESGGGVVQPGRSLRLSCAASGFSFSGYGMHWVRQAPGKGLEWVAYISYDGSNKYYADSVKGRFTISRDNSKNTLYLQMNSLRAEDTAVYYCAKDPAWGLRLGESSSYDFDIWGQGTMVTVSSTRDKTHTCPPCPAGRADCGFTSESYQQGVLSATILYEILLGKATLYAVLVSALVLMAMVKRKDFRAKRSGSGATNFSLLKQAGDVEENPGPSRGHMTEYKPTVRLATRDDVPRAVRTLAAAFADYPATRHTVDPDRHIERVTELQELFLTRVGLDIGKVWVADDGAAVAVWTTPESVEAGAVFAEIGPRMAELSGSRLAAQQQMEGLLAPHRPKEPAWFLATVGVSPDHQGKGLGSAVVLPGVEAAERAGVPAFLETSAPRNLPFYERLGFTVTADVEVPEGPRTWCMTRKPGA
Take B3: the “NFAT-GFP ASSAY: LNCaP” value in the experiment with LNCaP cells was “+ (refer to approximately 5%, 10%, 20%, 30%, 40% and 50% GFP positive cells)”. For the same molecule, in the experiment on RAJI cells, the “NFAT-GFP ASSAY: Raji” value was “+/- (refer to approximately 5%, 10%, 20%, 30%, 40% and 50% GFP positive cells)”.

B4: SEQ ID NO: 22288: SAR with adaptor binding domain (Table 48) (protein)
chain: MALPVTALLLPLALLLHAARPACLFNQEVQIPLTESYCGPCPKNWICYKNNCYQFFDESKNWYESQASCMSQNASLLKVYSKEDQDLLKLVKSAHWMGLVHIPTNGSWQWEDGSILSPNLLTIIEMQKGDCALYASSFKGYIENCSTPNTYICMQRTVLEGQPKANPTVTLFPPSSEELQANKATLVCLISDFYPGAVTVAWKADGSPVKAGVETTKPSKQSNNKYAASSYLSLTPEQWKSHRSYSCQVTHEGSTVEKTVAPTECSPIKTDVITMDPKDNCSKDANDTLLLQLTNTSAYYMYLLLLLKSVVYFAIITCCLLRRTAFCCNGEKSRAKRSGSGATNFSLLKQAGDVEENPGPTSATMDWIWRILFLVGAATGAHSGPQVQLQESGGGLAQAGGSLRLSCAASGRTFSMGWFRQAPGKEREFVAAITYSGGSPYYASSVRGRFTISRDNAKNTVYLQMNSLKPEDTAVYYCAANPTYGSDWNAENWGQGTQVTVSSGSGGGGSGGGGSGGGGSFEDLFNQEVQIPLTESYCGPCPKNWICYKNNCYQFFDESKNWYESQASCMSQNASLLKVYSKEDQDLLKLVKSAHWMGLVHIPTNGSWQWEDGSILSPNLLTIIEMQKGDCALYASSFKGFIENCSTPNTYICMQRTVTRASTKGPSVFPLAPSSKSTSGGTAALGCLVKDYFPEPVTVSWNSGALTSGVHTFPAVLQSSGLYSLSSVVTVPSSSLGTQTYICNVNHKPSNTKVDKRVEPKSCEVKTDSTDHVKPKETENTKQPSKSCHKPKAIVHTEKVNMMSLTVLGLRMLFAKTVAVNFLLTAKLFFLRAKRSGSGVKQTLNFDLLKLAGDVESNPGPSRGHMTEYKPTVRLATRDDVPRAVRTLAAAFADYPATRHTVDPDRHIERVTELQELFLTRVGLDIGKVWVADDGAAVAVWTTPESVEAGAVFAEIGPRMAELSGSRLAAQQQMEGLLAPHRPKEPAWFLATVGVSPDHQGKGLGSAVVLPGVEAAERAGVPAFLETSAPRNLPFYERLGFTVTADVEVPEGPRTWCMTRKPGA
On to B4, for which the GFP induction result in the experiment with LNCaP cells (LNCaP cells, only in the presence of SAR-adaptor PSMA-USC76-chVH-G4S-ULBP2-S3 (SEQ ID NO: 23114)) is recorded as “Essentially similar results”. In addition, the “GFP induction / activity” value in the experiment on RAJI cells (co-culture with RAJI cells) was “Essentially similar results”.

B5: 22055 (protein)
chain: MALPVTALLLPLALLLHAARPQLQLQESGPGLVKPSETLSLTCTVSGDSISSGDYYWGWIRQPPGKGLEWIGHIYYSGVTYYNPSLKSRVTISVDTSRNQFSLKLSSVTAADTAVYYCTREDSSNWRSRGQGTLVTVSSLEGSEVKTDSTDHVKPKETENTKQPSKSCHKPKAIVHTEKVNMMSLTVLGLRMLFAKTVAVNFLLTAKLFFLRAKRSGSGVKQTLNFDLLKLAGDVESNPGPTSMDWIWRILFLVGAATGAHSFEVQLVESGGGVVQPGRSLRLSCAASGFSFSGYGMHWVRQAPGKGLEWVAYISYDGSNKYYADSVKGRFTISRDNSKNTLYLQMNSLRAEDTAVYYCAKDPAWGLRLGESSSYDFDIWGQGTMVTVSSTRGSGRADCGFTSESYQQGVLSATILYEILLGKATLYAVLVSALVLMAMVKRKDSRGRAKRSGSGATNFSLLKQAGDVEENPGPSRGHMTEYKPTVRLATRDDVPRAVRTLAAAFADYPATRHTVDPDRHIERVTELQELFLTRVGLDIGKVWVADDGAAVAVWTTPESVEAGAVFAEIGPRMAELSGSRLAAQQQMEGLLAPHRPKEPAWFLATVGVSPDHQGKGLGSAVVLPGVEAAERAGVPAFLETSAPRNLPFYERLGFTVTADVEVPEGPRTWCMTRKPGA
As to B5, in the experiment on LNCaP cells, the “NFAT-GFP ASSAY: LNCaP” value was “+ (refer to approximately 5%, 10%, 20%, 30%, 40% and 50% GFP positive cells)”. Moreover, in the experiment with RAJI cells, the “NFAT-GFP ASSAY: Raji” value was “+/- (refer to approximately 5%, 10%, 20%, 30%, 40% and 50% GFP positive cells)”.

B6: 22058 (protein)
chain: MALPVTALLLPLALLLHAARPQLQLQESGPGLVKPSETLSLTCTVSGDSISSGDYYWGWIRQPPGKGLEWIGHIYYSGVTYYNPSLKSRVTISVDTSRNQFSLKLSSVTAADTAVYYCTREDSSNWRSRGQGTLVTVSSLEDLKNVFPPEVAVFEPSEAEISHTQKATLVCLATGFYPDHVELSWWVNGKEVHSGVCTDPQPLKEQPALNDSRYCLSSRLRVSATFWQNPRNHFRCQVQFYGLSENDEWTQDRAKPVTQIVSAEAWGRADCGFTSESYQQGVLSATILYEILLGKATLYAVLVSALVLMAMVKRKDSRGRAKRSGSGATNFSLLKQAGDVEENPGPTSMDWIWRILFLVGAATGAHSFEVQLVESGGGVVQPGRSLRLSCAASGFSFSGYGMHWVRQAPGKGLEWVAYISYDGSNKYYADSVKGRFTISRDNSKNTLYLQMNSLRAEDTAVYYCAKDPAWGLRLGESSSYDFDIWGQGTMVTVSSTRIQNPDPAVYQLRDSKSSDKSVCLFTDFDSQTNVSQSKDSDVYITDKCVLDMRSMDFKSNSAVAWSNKSDFACANAFNNSIIPEDTFFPSPESSCDVKLVEKSFETDTNLNFQNLSVIGFRILLLKVAGFNLLMTLRLWSSRAKRSGSGVKQTLNFDLLKLAGDVESNPGPSRGHMTEYKPTVRLATRDDVPRAVRTLAAAFADYPATRHTVDPDRHIERVTELQELFLTRVGLDIGKVWVADDGAAVAVWTTPESVEAGAVFAEIGPRMAELSGSRLAAQQQMEGLLAPHRPKEPAWFLATVGVSPDHQGKGLGSAVVLPGVEAAERAGVPAFLETSAPRNLPFYERLGFTVTADVEVPEGPRTWCMTRKPGA
Take B6: the “NFAT-GFP ASSAY: LNCaP” value in the experiment on LNCaP cells is “+ (refer to approximately 5%, 10%, 20%, 30%, 40% and 50% GFP positive cells)”. Besides, the “NFAT-GFP ASSAY: Raji” value with RAJI cells was “+/- (refer to approximately 5%, 10%, 20%, 30%, 40% and 50% GFP positive cells)”.

Values taken from patent US20230212319A1, “NOVEL ANTIGEN BINDING DOMAINS AND SYNTHETIC ANTIGEN RECEPTORS INCORPORATING THE SAME” (University of Southern California, priority 2020, published 2023).
